Among the data in patent publication US20080287363A1 are IC50 values, retold here.

For experiment [1], the target named is CCL5/RANTES (UniProt P13501). The experiment can be described thus: equilibrium competition receptor binding assay (SPA): inhibition of 0.1 nM 125I-RANTES binding to CHO/CCR1 membranes.
For experiment [2], the target named is CCL5/RANTES (UniProt P13501). Nature of the experiment: equilibrium competition receptor binding assay (SPA): inhibition of 0.1 nM 125I-RANTES binding to CHO/CCR5 membranes.

Chain of CCL5/RANTES (P13501 24-91 limits assumed): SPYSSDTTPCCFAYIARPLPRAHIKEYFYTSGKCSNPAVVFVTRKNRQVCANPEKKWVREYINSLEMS

For “recombinant Δ6 evasin-4 (truncated, N-terminally 6His tagged evasin-4, amino acids 24-127), purified”, the IC50 with CCL5/RANTES [1] was 7 nM; with CCL5/RANTES [2], 3 nM.

The IC50 is the concentration at which inhibition is half-maximal.
